Measured values as given in PMC9882231 (bioRxiv, 2023).
Where “and” joins values, the source holds several entries; their conditions need not be identical. Equal entries are not always repeated.

B1: Ndl1^CC (Ndl1 coiled-coil domain, residues 2-132) (domain or fragment)
chain: VPNLDLETAIQIISSLETQLSELEGATKEYENDLEQVISKLKSDLLESQQQNKCNKKQITDLEIQVDELENENIQLRNKIETLQLESDRRLERNVLLEHELLDTKEALQKLRVSKEEATSGETRRNTRSLP
B2: Ndl1, full-length, with C-terminal FLAG-SNAPf (natural protein)
chain: MVPNLDLETAIQIISSLETQLSELEGATKEYENDLEQVISKLKSDLLESQQQNKCNKKQITDLEIQVDELENENIQLRNKIETLQLESDRRLERNVLLEHELLDTKEALQKLRVSKEEATSGETRRNTRSLPSQNKKMKLFKDTIKVSTTSSTLYLQNMAKTNNAARSHCNIPNTQITQSTVIATTSSV
modifications: JFX554 or JFX650 SNAP-tag ligand on the SNAPf tag
B3: Ndel1^CC (human Ndel1 coiled-coil domain, residues 1-195), as used in Figure 4 (domain or fragment)
chain: MDGEDIPDFSSLKEETAYWKELSLKYKQSFQEARDELVEFQEGSRELEAELEAQLVQAEQRNRDLQADNQRLKYEVEALKEKLEHQYAQSYKQVSVLEDDLSQTRAIKEQLHKYVRELEQANDDLERAKRATIVSLEDFEQRLNQAIERNAFLESELDEKESLLVSVQRLKDEARDLRQELAVRERQQEVTRKSA
B4: LIS1, wild-type (natural protein)
chain: MVLSQRQRDELNRAIADYLRSNGYEEAYSVFKKEAELDVNEELDKKYAGLLEKKWTSVIRLQKKVMELESKLNEAKEEFTSGGPLGQKRDPKEWIPRPPEKYALSGHRSPVTRVIFHPVFSVMVSASEDATIKVWDYETGDFERTLKGHTDSVQDISFDHSGKLLASCSADMTIKLWDFQGFECIRTMHGHDHNVSSVAIMPNGDHIVSASRDKTIKMWEVQTGYCVKTFTGHREWVRMVRPNQDGTLIASCSNDQTVRVWVVATKECKAELREHEHVVECISWAPESSYSSISEATGSETKKSGKPGPFLLSGSRDKTIKMWDVSTGMCLMTLVGHDNWVRGVLFHSGGKFILSCADDKTLRVWDYKNKRCMKTLNAHEHFVTSLDFHKTAPYVVTGSVDQTVKVWECR
B5: Pac1, full-length, with C-terminal FLAG-SNAPf (natural protein)
chain: MTNWQQQLPLTDTQKNELDKSVLRYLNWNYKQTVRHEHAQDYESVRHAIVTLSGFLLQESVDRQEFISNNDTSNESMVDIDELLLPKKWNSIVRLQKKIIELEQNTETLVSQIKDLNTQVSELAQFKPTTSNGTSAHNVLKWIPRNLPSCLINVESSVTSVKLHPNLPIVFVATDHGKLYAFDLFNYTIPLASLQSHTKAITSMDVLFTNYTNSSKKNYLVIVTASKDLQIHVFKWVSEECKFQQIRSLLGHEHIVSAVKIWQKNNDVHIASCSRDQTVKIWDFHNGWSLKTFQPHSQWVRSIDVLGDYIISGSHDTTLRLTHWPSGNGLSVGTGHEFPIEKVKFIHFIEDSPEIRFRTPSTDRYKNWGMQYCVSASRDRTIKIWEIPLPTLMAHRAPIPNPTDSNFRCVLTLKGHLSWVRDISIRGQYLFSCADDKSVRCWDLNTGQCLHVWEKLHTGFVNCLDLDVDFDSNVTPRQMMVTGGLDCKSNVFMR
modifications: SNAP-tag ligand dye on the SNAPf tag where labelled
B6: Nip100^CC1 (Nip100 coiled-coil, residues 97-377) with eGFP (domain or fragment)
chain: EHSLLNGNAAQETIKNLQVKCESLASKLNKIKIENHELKTSVEKLSTNETVLLSKISRLDKLVKELKVENGNMKTHLDNFNHLLDASDSVMAPDLDKGTLLERSHLLQGLLDQTKLSYDKAMKVQEDLLEENTQLLEENAVLSKKISDLGLQLQQTNNTIGDLALQIEAQSKSSNIVDKLTNDNILLTSNIKALNNELEELQAKEKLDENLRITYEQLEQELRLQLSNLQSALENEKEIAGTYIEENSRLKATLESIEAKTSHKFQSLELKVNTLQEELYQ

Assays:
[1] = target: yeast dynein complex, wild-type (WT) (S. cerevisiae, UniProt P36022;P40960;Q04949;Q02647, HaloTag or SNAP ligand dye on the tag); experiment: TIRF microscopy microtubule recruitment assay
yeast dynein complex, wild-type (WT), sequence (P36022 whole entry, chain 1 of 4): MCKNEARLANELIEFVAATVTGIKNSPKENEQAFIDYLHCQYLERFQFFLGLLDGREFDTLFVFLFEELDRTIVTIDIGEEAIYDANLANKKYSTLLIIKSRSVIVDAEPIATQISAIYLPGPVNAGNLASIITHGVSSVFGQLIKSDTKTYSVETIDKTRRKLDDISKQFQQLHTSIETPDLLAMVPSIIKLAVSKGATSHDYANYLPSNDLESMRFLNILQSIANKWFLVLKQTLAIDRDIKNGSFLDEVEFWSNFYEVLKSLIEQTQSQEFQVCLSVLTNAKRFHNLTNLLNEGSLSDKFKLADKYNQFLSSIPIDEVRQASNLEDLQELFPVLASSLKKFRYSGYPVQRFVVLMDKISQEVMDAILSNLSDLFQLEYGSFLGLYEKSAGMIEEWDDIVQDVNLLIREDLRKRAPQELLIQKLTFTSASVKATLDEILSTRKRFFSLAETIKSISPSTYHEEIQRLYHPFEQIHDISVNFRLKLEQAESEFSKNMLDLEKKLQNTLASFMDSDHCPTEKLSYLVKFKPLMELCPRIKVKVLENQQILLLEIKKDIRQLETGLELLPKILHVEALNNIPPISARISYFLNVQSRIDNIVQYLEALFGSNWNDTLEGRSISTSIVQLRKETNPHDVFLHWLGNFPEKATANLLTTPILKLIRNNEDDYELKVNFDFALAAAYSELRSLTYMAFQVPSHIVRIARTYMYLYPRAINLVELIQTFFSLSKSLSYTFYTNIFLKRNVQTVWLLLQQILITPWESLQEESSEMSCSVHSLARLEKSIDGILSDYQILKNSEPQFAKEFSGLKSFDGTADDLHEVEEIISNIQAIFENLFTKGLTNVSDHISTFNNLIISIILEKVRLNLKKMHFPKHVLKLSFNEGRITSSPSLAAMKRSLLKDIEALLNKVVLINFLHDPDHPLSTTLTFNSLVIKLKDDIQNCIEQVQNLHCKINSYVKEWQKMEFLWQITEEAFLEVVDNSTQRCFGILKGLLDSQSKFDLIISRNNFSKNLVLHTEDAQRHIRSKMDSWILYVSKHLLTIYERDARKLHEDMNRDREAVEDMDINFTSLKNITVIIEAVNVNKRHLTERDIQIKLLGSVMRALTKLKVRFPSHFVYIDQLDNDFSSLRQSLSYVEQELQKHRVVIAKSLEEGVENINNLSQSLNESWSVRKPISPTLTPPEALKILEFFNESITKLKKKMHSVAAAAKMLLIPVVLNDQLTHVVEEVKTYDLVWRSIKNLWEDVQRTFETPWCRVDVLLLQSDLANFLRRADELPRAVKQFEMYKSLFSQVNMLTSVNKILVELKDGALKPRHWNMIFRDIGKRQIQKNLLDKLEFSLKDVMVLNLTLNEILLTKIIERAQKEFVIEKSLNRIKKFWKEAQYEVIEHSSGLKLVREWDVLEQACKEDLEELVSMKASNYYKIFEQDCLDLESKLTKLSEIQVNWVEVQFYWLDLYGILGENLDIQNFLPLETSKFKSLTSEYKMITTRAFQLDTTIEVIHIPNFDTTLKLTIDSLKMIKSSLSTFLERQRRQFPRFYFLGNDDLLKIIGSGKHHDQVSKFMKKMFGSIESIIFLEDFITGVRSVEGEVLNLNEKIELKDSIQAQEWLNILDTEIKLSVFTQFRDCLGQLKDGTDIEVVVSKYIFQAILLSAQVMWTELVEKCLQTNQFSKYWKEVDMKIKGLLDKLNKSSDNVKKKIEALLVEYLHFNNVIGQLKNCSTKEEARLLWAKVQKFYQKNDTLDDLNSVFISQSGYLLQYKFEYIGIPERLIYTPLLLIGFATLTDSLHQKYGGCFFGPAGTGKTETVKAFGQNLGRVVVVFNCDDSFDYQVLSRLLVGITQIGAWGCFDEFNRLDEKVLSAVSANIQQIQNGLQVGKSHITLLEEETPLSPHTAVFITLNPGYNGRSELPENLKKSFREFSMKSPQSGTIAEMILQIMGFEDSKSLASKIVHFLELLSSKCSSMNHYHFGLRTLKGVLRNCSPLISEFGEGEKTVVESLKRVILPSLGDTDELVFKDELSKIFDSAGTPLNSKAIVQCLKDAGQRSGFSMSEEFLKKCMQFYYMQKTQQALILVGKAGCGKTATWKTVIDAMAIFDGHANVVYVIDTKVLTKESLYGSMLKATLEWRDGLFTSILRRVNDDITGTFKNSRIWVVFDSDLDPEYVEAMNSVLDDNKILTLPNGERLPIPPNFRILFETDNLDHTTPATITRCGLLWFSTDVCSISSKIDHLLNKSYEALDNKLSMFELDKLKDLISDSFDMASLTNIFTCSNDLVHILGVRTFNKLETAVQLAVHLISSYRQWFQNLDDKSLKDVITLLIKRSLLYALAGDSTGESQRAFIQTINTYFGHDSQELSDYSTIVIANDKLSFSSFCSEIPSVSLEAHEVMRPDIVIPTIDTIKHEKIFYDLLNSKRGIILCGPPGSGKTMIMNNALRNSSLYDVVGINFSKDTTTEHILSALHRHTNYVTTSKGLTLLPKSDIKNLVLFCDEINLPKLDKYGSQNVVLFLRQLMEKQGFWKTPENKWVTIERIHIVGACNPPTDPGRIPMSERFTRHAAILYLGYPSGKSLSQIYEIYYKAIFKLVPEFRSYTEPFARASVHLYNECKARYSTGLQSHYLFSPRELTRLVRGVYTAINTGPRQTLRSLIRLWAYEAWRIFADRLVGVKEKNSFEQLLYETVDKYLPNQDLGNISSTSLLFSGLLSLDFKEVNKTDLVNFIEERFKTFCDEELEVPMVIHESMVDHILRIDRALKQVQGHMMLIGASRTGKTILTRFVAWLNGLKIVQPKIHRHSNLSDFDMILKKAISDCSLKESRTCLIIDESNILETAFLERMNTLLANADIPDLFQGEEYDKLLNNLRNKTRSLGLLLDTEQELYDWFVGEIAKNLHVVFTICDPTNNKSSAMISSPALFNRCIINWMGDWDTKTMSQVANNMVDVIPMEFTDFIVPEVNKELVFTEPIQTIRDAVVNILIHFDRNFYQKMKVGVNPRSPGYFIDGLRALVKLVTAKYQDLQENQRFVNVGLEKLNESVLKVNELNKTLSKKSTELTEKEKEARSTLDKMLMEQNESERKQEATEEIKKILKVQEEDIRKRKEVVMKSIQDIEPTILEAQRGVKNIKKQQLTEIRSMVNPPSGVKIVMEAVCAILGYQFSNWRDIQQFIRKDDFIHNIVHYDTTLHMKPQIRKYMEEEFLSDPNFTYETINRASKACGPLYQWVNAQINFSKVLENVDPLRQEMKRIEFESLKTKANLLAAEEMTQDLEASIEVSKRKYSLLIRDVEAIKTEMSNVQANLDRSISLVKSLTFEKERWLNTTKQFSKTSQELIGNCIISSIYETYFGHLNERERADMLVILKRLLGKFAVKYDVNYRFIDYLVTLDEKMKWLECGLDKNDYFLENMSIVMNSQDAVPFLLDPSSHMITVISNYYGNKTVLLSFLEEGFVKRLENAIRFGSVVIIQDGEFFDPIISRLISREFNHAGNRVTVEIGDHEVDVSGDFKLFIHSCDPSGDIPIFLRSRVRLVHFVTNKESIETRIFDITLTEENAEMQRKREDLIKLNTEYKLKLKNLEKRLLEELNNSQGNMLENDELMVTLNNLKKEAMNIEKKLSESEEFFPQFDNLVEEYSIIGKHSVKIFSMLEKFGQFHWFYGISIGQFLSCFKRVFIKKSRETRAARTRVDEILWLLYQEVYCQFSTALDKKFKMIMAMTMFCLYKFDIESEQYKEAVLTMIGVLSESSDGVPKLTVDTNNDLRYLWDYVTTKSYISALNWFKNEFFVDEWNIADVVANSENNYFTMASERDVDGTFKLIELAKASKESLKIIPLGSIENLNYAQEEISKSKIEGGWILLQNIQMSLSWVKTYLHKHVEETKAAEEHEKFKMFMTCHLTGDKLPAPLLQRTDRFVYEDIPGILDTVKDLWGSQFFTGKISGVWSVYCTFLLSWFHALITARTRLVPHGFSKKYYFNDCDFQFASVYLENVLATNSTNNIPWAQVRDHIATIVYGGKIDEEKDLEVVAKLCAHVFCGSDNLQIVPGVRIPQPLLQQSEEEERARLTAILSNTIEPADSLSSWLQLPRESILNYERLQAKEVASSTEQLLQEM
yeast dynein complex, wild-type (WT), sequence (P40960 whole entry, chain 2 of 4): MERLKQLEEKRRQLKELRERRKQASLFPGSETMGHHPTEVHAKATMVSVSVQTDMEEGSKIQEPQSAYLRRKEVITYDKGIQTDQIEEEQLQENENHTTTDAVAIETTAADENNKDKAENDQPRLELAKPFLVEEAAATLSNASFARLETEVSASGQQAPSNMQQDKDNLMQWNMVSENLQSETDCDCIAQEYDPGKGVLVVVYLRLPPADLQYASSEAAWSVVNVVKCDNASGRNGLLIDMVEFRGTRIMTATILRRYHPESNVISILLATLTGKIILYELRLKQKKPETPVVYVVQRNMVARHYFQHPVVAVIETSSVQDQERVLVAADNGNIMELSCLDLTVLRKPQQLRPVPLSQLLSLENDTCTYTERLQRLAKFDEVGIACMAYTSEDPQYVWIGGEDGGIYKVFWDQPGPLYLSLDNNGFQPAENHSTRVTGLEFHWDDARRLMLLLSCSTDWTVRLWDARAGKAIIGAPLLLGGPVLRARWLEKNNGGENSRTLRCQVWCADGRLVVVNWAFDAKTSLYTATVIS
yeast dynein complex, wild-type (WT), sequence (Q04949 whole entry, chain 3 of 4): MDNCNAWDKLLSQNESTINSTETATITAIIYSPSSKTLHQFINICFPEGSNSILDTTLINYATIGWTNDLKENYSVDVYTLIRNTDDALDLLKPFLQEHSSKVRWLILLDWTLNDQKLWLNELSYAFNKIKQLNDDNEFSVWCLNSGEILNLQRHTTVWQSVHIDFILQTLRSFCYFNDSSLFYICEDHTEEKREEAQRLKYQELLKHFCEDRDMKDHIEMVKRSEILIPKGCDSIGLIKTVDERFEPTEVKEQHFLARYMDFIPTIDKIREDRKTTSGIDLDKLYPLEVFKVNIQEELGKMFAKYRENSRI
yeast dynein complex, wild-type (WT), sequence (Q02647 whole entry, chain 4 of 4): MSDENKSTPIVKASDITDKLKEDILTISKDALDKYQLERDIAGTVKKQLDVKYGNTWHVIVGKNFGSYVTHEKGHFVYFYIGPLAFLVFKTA

mass photometry = target: the molecule itself; experiment: mass photometry
[2] = target: B3; experiment: mass photometry
[3] = target: yeast dynein^ΔICN complex (S. cerevisiae, UniProt P36022;P40960;Q04949;Q02647, HaloTag or SNAP ligand dye on the tag); experiment: TIRF microscopy microtubule recruitment assay
[4] = target: B1; experiment: mass photometry

In the case of B1, the binding result [1] is reported as “binds” and the “stoichiometry N” value (mass photometry) is reported as 2.

B2: binds [1].

In the case of B3, the “stoichiometry N” value (mass photometry) is reported as 2.

For B4, the “stoichiometry N” value [2] was 1.

For B5, the binding result [1] was “binds”, the binding result [3] was “binds” and the “stoichiometry N” value [4] was 1 and 2 Pac1:Ndl1. The “stoichiometry N” value (mass photometry) was 2.

B6: binds [1].
